Test results reported in publication PMC5025757, “Sequences flanking the core-binding site modulate glucocorticoid receptor structure and activity”.

Experiments:
[1] = biological target: GR DBD A477T (dim mutant) (rat, UniProt P06536 440-525, A477T); test: EMSA; affinity lower than wild type; EMSA: 20 mM Tris pH 7.5, 2 mM MgCl2, 1 mM EDTA, 10% glycerol, 0.3 mg/ml BSA, 4 mM DTT, 0.05 ug/ul dIdC, 1.25 nM DNA, 30 min; NMR: 20 mM Na phosphate, 100 mM NaCl, 1 mM DTT, pH 6.7, 5% D2O, imino titration at 25 C; conditions: protein: recombinant; chain copies: 2; label: Cy5 5' of strand 1; blunt
GR DBD wild type [2] = biological target: T1, GR DBD wild type (rat, UniProt P06536 440-525); test: EMSA; value only in figure; slightly higher affinity than A/T; EMSA: 20 mM Tris pH 7.5, 2 mM MgCl2, 1 mM EDTA, 10% glycerol, 0.3 mg/ml BSA, 4 mM DTT, 0.05 ug/ul dIdC, 1.25 nM DNA, 30 min; NMR: 20 mM Na phosphate, 100 mM NaCl, 1 mM DTT, pH 6.7, 5% D2O, imino titration at 25 C; conditions: protein: recombinant; chain copies: 2; label: Cy5 5' of strand 1; blunt
GR DBD wild type [3] = biological target: T1, GR DBD wild type; test: NMR (1D imino proton titration); 25 C; EMSA: 20 mM Tris pH 7.5, 2 mM MgCl2, 1 mM EDTA, 10% glycerol, 0.3 mg/ml BSA, 4 mM DTT, 0.05 ug/ul dIdC, 1.25 nM DNA, 30 min; NMR: 20 mM Na phosphate, 100 mM NaCl, 1 mM DTT, pH 6.7, 5% D2O, imino titration at 25 C; conditions: protein: recombinant; chain copies: 2; blunt
GR DBD wild type [4] = biological target: T1, GR DBD wild type; test: NMR (15N-HSQC); EMSA: 20 mM Tris pH 7.5, 2 mM MgCl2, 1 mM EDTA, 10% glycerol, 0.3 mg/ml BSA, 4 mM DTT, 0.05 ug/ul dIdC, 1.25 nM DNA, 30 min; NMR: 20 mM Na phosphate, 100 mM NaCl, 1 mM DTT, pH 6.7, 5% D2O, imino titration at 25 C; conditions: protein: recombinant; chain copies: 2; blunt
GR DBD wild type [5] = biological target: T1, GR DBD wild type; test: EMSA; value only in figure; similar Kd for A/T and G/C flanks; EMSA: 20 mM Tris pH 7.5, 2 mM MgCl2, 1 mM EDTA, 10% glycerol, 0.3 mg/ml BSA, 4 mM DTT, 0.05 ug/ul dIdC, 1.25 nM DNA, 30 min; NMR: 20 mM Na phosphate, 100 mM NaCl, 1 mM DTT, pH 6.7, 5% D2O, imino titration at 25 C; conditions: protein: recombinant; chain copies: 2; label: Cy5 5' of strand 1; blunt
GR DBD wild type [6] = biological target: T1, GR DBD wild type; test: NMR (1D imino proton titration); G46 more broadened than with G/C; 25 C; EMSA: 20 mM Tris pH 7.5, 2 mM MgCl2, 1 mM EDTA, 10% glycerol, 0.3 mg/ml BSA, 4 mM DTT, 0.05 ug/ul dIdC, 1.25 nM DNA, 30 min; NMR: 20 mM Na phosphate, 100 mM NaCl, 1 mM DTT, pH 6.7, 5% D2O, imino titration at 25 C; conditions: protein: recombinant; chain copies: 2; blunt

T1 sequence (P06536 440-525): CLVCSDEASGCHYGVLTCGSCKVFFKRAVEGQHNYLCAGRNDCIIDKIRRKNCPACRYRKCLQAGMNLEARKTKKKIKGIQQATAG
Chain of GR DBD A477T (dim mutant) (P06536 440-525 A477T): as the sequence (P06536 440-525) above, with A38T counted along it

B1: G-Cgt-C EMSA (dsDNA)
DNA 1: ACCGAGAACATTTTGTACGCCTC
DNA 2: GAGGCGTACAAAATGTTCTCGGT
Kd [1]: 3.5 ± 1.1 µM
binding result (GR DBD wild type [2]): binds

B2: Cgt G-C NMR (dsDNA)
DNA 1: GCCGAGAACATTTTGTACGCCTCG
DNA 2: CGAGGCGTACAAAATGTTCTCGGC
binding result (GR DBD wild type [3]): binds

B3: Cgt A-C NMR (dsDNA)
DNA 1: GCCAAGAACATTTTGTACGCCTCG
DNA 2: CGAGGCGTACAAAATGTTCTTGGC
binding result (GR DBD wild type [4]): binds

B4: A-Cgt-T EMSA (dsDNA)
DNA 1: ACCAAGAACATTTTGTACGTCTC
DNA 2: GAGACGTACAAAATGTTCTTGGT
Kd [1]: 3.1 ± 0.4 µM
binding result (GR DBD wild type [5]): binds

B5: Cgt A-T NMR (dsDNA)
DNA 1: GCCAAGAACATTTTGTACGTCTCG
DNA 2: CGAGACGTACAAAATGTTCTTGGC
binding result (GR DBD wild type [6]): binds

B6: G-Sgk-C EMSA (dsDNA)
DNA 1: ACCGAGAACATTTTGTCCGCCTC
DNA 2: GAGGCGGACAAAATGTTCTCGGT
binding result (GR DBD wild type [5]): binds

B7: A-Sgk-T EMSA (dsDNA)
DNA 1: ACCAAGAACATTTTGTCCGTCTC
DNA 2: GAGACGGACAAAATGTTCTTGGT
binding result (GR DBD wild type [5]): binds
